Results from patent US20210171610A1 (US Dept. of Health and Human Services, published 2021).

Assays:
[1] = molecular target: T1, Soluble EBV gH/gL complex (poly-histidine tagged) (Epstein Barr Virus, UniProt P03231 19-679; P03212 24-137); assay: Biolayer interferometry (Octet), His-tagged gH/gL on HIS1K biosensors, Fab dilution series (top curve labelled 2.50E-08), 300 s association, 900 s dissociation, 1:1 global fit
T1 construct: also called gH/gL Avi-His probe

[2] = molecular target: T2, Soluble EBV gH/gL/gp42 complex (HIS-tagged) (Epstein Barr Virus, UniProt P03231 19-679; P03212 24-137; P03205 33-223); assay: Biolayer interferometry (Octet), His-tagged gH/gL/gp42 on HIS1K biosensors, Fab dilution series (top curve labelled 5.00E-08), 300 s association, 900 s dissociation, 1:1 global fit
[3] = molecular target: T1, Soluble EBV gH/gL complex …; assay: BLI kinetics, KD on gH/gL against KD on gH/gL/gp42
[4] = molecular target: T1, Soluble EBV gH/gL complex …; assay: BLI (Octet), His-captured soluble gH/gL on HIS1K biosensor, Fab in solution, 1:1 global fit; target gH/gL without gp42
[5] = molecular target: T2, Soluble EBV gH/gL/gp42 complex …; assay: BLI (Octet), His-captured soluble gH/gL/gp42 on HIS1K biosensor, Fab in solution, 1:1 global fit; target gH/gL/gp42 (gp42 present)
[6] = molecular target: T1, Soluble EBV gH/gL complex …; assay: Biolayer interferometry (Octet), His-tagged gH/gL on HIS1K biosensors, Fab dilution series (top curve labelled 2.50E-08), 1:1 global fit; same panel as FIG. 1C
[7] = molecular target: T2, Soluble EBV gH/gL/gp42 complex …; assay: Biolayer interferometry (Octet), His-tagged gH/gL/gp42 on HIS1K biosensors, Fab dilution series (top curve labelled 2.50E-08), 1:1 global fit; same panel as FIG. 1C
[8] = molecular target: T1, Soluble EBV gH/gL complex …; assay: Biolayer interferometry (Octet), His-tagged gH/gL on HIS1K biosensors, Fab dilution series (top curve labelled 2.50E-08), 300 s association, 900 s dissociation, 1:1 global fit; remark: listed apart in the source
[9] = molecular target: T2, Soluble EBV gH/gL/gp42 complex …; assay: Biolayer interferometry (Octet), His-tagged gH/gL/gp42 on HIS1K biosensors, Fab dilution series (top curve labelled 2.50E-08), 300 s association, 900 s dissociation, 1:1 global fit
[10] = molecular target: T1, Soluble EBV gH/gL complex …; assay: Biolayer interferometry (Octet), His-tagged gH/gL on HIS1K biosensors, Fab dilution series (top curve labelled 5.00E-08), 300 s association, 900 s dissociation, 1:1 global fit
[11] = molecular target: T2, Soluble EBV gH/gL/gp42 complex …; assay: Biolayer interferometry (Octet), His-tagged gH/gL/gp42 on HIS1K biosensors, Fab dilution series (top curve labelled 1.00E-07), 300 s association, 900 s dissociation, 1:1 global fit

T2 sequence (P03231 19-679 limits assumed, chain 1 of 3): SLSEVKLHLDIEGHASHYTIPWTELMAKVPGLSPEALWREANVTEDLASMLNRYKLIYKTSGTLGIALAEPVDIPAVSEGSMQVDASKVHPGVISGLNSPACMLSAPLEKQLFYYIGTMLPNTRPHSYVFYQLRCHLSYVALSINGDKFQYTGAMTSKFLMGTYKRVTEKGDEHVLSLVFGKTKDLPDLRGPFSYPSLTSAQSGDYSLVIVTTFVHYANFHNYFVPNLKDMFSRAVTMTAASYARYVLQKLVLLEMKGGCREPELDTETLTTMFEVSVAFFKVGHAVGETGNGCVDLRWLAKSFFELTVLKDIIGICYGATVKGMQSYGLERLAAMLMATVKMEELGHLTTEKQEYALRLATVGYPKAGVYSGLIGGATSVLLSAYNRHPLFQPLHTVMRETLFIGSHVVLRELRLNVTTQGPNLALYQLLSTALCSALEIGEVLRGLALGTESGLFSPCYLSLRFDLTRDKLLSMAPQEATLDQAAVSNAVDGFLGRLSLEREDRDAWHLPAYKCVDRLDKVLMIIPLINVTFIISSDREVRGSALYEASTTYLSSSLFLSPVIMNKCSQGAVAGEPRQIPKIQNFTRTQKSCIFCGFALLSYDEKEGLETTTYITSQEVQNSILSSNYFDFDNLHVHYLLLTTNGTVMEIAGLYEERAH
T2 sequence (P03212 24-137 limits assumed, chain 2 of 3): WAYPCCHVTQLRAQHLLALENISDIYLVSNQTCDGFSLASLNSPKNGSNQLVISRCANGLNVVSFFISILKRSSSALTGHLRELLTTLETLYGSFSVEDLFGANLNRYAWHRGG
T2 sequence (P03205 33-223 limits assumed, chain 3 of 3): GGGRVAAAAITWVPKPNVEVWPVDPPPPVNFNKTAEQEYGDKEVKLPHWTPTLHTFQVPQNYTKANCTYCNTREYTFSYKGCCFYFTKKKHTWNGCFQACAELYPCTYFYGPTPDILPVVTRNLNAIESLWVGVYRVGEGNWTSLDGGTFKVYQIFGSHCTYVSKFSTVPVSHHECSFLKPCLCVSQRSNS
T1 sequence (P03231 19-679 limits assumed, chain 1 of 2): as the sequence (P03231 19-679 limits assumed, chain 1 of 3) above
T1 sequence (P03212 24-137 limits assumed, chain 2 of 2): as the sequence (P03212 24-137 limits assumed, chain 2 of 3) above

B1: Fab fragment of antibody 770F7 (Fab, V domains shown)
VH: QVQFQQWGAGLLKPSETLSLTCGVYGGSLSGYYWSWIRQTPGKGLEWIGEINHTGTTNYNPSLKSRVTMSVDTSKNQFSLKMSSLTAADTALYYCAREGAPRWALKRPSNWFDPWGQGTLVTVSS
VL: EIVLTQSPVSLSLSPGERATLSCRASQSISSTYLAWYQQIPGQAPRLLIYGASSRAAGIPDRFSGGGSGTDFTLTISRLEPEDFAVYYCQQYGSSPRSFGQGTKLEIK
notes: also called 770F7 Fab
B1 gave a Kd [1] of 0.317 nM, a koff [1] of 0.000165 s⁻¹ and a kon [1] of 520000 M⁻¹ s⁻¹. The Kd [2] was 0.207 nM, the koff [2] was 0.000128 s⁻¹ and the kon [2] was 619000 M⁻¹ s⁻¹.

B2: Fab fragment of 769B10 (Fab, V domains shown)
VH: EVQLVESGGGIVQPGGSLRVSCAASGFSLSDHYMDWVRQAPGRGLEWVGRSRNKENSFTTEFAASVRRRFTISRDDSNSLLHLQMNNLKSEDTAVYFCARVGYYDLWSGYSGNWYIDVWGRGTLVIVSS
VL: DIQMTQSPSSLSASLGDSVTITCRASQTMSNFLNWYQQKPGKAPKFLIYAASRLQSGVPSRFSGSGSGTQFTLTISNLQPEDFATYYCQQSFIFPYTFGGGTKVEVE
notes: also called 769B10 Fab; B10 Fab
B2 was tested, and the “fold stronger affinity than for gH/gL/gp42” value [3] was 10 fold, the Kd [4] was 0.0307 nM and the Kd [5] was 0.458 nM. For the same binder, the koff [6] was 1.51e-05 s⁻¹, the kon [6] was 490000 M⁻¹ s⁻¹ and the koff [7] was 2.58e-05 s⁻¹. For the same binder, the kon [7] was 564000 M⁻¹ s⁻¹, the koff [8] was 1.51e-05 s⁻¹ and the kon [8] was 490000 M⁻¹ s⁻¹. It also gave a koff [9] of 2.58e-05 s⁻¹ and a kon [9] of 564000 M⁻¹ s⁻¹.

B3: Fab fragment of antibody 769C2 (Fab, V domains shown)
VH: EVQLVESGGGLVKPGGSLRLSCAASGFTFSTYAMDWVRQAPGKGLEWVSLISSRSSNIYYSDSVKGRFTISRDNAKNSLFLQMNSLRAEDTAVYYCAREAGGFHSHFDMWGQGTLVTVSS
VL: QSVLTQPASVSGSLGQSVTISCTGTSSDVGGYDYVSWYQQHPGKAPKLMIFEVNNRPSGVSTRFSGSKSGNTASLTISGLQAEDEADYYCNSYSTTTTWVFGGGTSLT
notes: also called 769C2 Fab
Work on B3 yielded a Kd [10] of 1.16 nM, a koff [10] of 0.000292 s⁻¹ and a kon [10] of 252000 M⁻¹ s⁻¹. For the same binder, the Kd [11] was 2.05 nM, the koff [11] was 0.000425 s⁻¹ and the kon [11] was 207000 M⁻¹ s⁻¹.
